Like-named read-outs stand apart in the source and are kept apart here.
B1: TCN-504 (3251_K17) (antibody, V domains shown)
VH: QVQLQESGPGLVKPSETLSLTCAVSGVSISNIDFYWGWIRQPPGKGLEWIGNIYYTGITFYNPSLSSRVAISIDTSKNQFSLTLTSVTAADTAMYYCARHYGDSEAINDAFDIWGQGTMLTVSS
VL: EIVMTQSPATLSVSPGERATLSCRASQSVGNSLAWYQQRPGQAPRLLIYGASTRATGIPPRFSGSGSGTEFTLTISSLQTEDFAVYYCQQYINWRPLSFGGGTKVEIK
B2: TCN-563 (5237_B21) (antibody, V domains shown)
VH: QVQLAQSGAEVKRPGSSVKVSCTASGGIFRKNAISWVRQAPGQGLEWMGGIIAVFNTANYAQKFQGRVKITADESGNTAYMELSSLRSDDTAVYYCASHPKYFYGSGSYPDFWGQGTLVTVSS
VL: QSALTQPRSVSGSPGQSVTISCTGSSSDVGASNSVSWYQQHPGKAPKLVIYDVTERPSGVPHRFSGSKSGNTASLTVSGLQPEDEADYFCCAYGGKYLVVFGGGTKVTVL

What was measured:
Settings in all cases: remark: other sources report otherwise
[1] = target: T1, recombinant soluble homotrimeric HA of A/California/4/09 (H1N1) (Influenza A virus A/California/04/2009(H1N1)); assay: HA microarray, control antibody
[2] = target: T2, recombinant soluble homotrimeric HA of A/duck/Yangzhou/02/05 (H8N4) (Influenza A virus A/duck/Yangzhou/02/2005(H8N4)); assay: HA microarray, control antibody
[3] = target: recombinant soluble homotrimeric HA of A/Anhui/1/05 (H5N1) (Influenza A virus A/Anhui/1/2005(H5N1))
[4] = target: T1, recombinant soluble homotrimeric HA of …
[5] = target: recombinant soluble homotrimeric HA of A/Egypt/3300-NAMRU3/08 (H5N1) (Influenza A virus A/Egypt/3300-NAMRU3/2008(H5N1))
[6] = target: recombinant soluble homotrimeric HA of A/Hong Kong/1073/99 (H9N2) (Influenza A virus A/Hong Kong/1073/99 (H9N2))
[7] = target: recombinant soluble homotrimeric HA of A/Hong Kong/156/97 (H5N1) (Influenza A virus A/Hong Kong/156/97 (H5N1))
[8] = target: recombinant soluble homotrimeric HA of A/Indonesia/5/05 (H5N1) (Influenza A virus A/Indonesia/5/2005(H5N1))
[9] = target: recombinant soluble homotrimeric HA of A/Japan/305/57 (H2N2) (Influenza A virus A/Japan/305/1957(H2N2))
[10] = target: recombinant soluble homotrimeric HA of A/Netherlands/219/03 (H7N7) (Influenza A virus A/Netherlands/219/03(H7N7))
[11] = target: recombinant soluble homotrimeric HA of A/Solomon Islands/3/06 (H1N1) (Influenza A virus A/Solomon Islands/3/2006(H1N1))
[12] = target: recombinant soluble homotrimeric HA of A/South Carolina/1/18 (H1N1) (Influenza A virus A/South Carolina/1/18 (H1N1))
[13] = target: recombinant soluble homotrimeric HA of A/Vietnam/1203/04 (H5N1) (Influenza A virus A/VietNam/1203/2004(H5N1))
[14] = target: recombinant soluble homotrimeric HA of A/Wisconsin/67/05 (H3N2) (Influenza A virus A/Wisconsin/67/2005(H3N2))
[15] = target: recombinant soluble homotrimeric HA of A/chicken/Vietnam/NCVD-016/08 (H5N1) (Influenza A virus A/chicken/Vietnam/NCVD-016/2008(H5N1))
[16] = target: T2, recombinant soluble homotrimeric HA of …
[17] = target: recombinant soluble homotrimeric HA of A/northern shoveler/California/HKWF115/07 (H6) (Influenza A virus A/northern shoveler/California/HKWF115/2007(H6N1))
[18] = target: recombinant soluble homotrimeric HA of A/swine/Ontario/01911-2/99 (H4N6) (Influenza A virus A/Swine/Ontario/01911-2/99 (H4N6))

| Binder | Trimeric HA Binding: RLU [1] [RLU] | Trimeric HA Binding: RLU [2] [RLU] | Trimeric HA Binding: RLU [3] [RLU] | Trimeric HA Binding: RLU [4] [RLU] | Trimeric HA Binding: RLU [5] [RLU] | Trimeric HA Binding: RLU [6] [RLU] | Trimeric HA Binding: RLU [7] [RLU] | Trimeric HA Binding: RLU [8] [RLU] | Trimeric HA Binding: RLU [9] [RLU] | Trimeric HA Binding: RLU [10] [RLU] | Trimeric HA Binding: RLU [11] [RLU] | Trimeric HA Binding: RLU [12] [RLU] | Trimeric HA Binding: RLU [13] [RLU] | Trimeric HA Binding: RLU [14] [RLU] | Trimeric HA Binding: RLU [15] [RLU] | Trimeric HA Binding: RLU [16] [RLU] | Trimeric HA Binding: RLU [17] [RLU] | Trimeric HA Binding: RLU [18] [RLU] |
| --- | --- | --- | --- | --- | --- | --- | --- | --- | --- | --- | --- | --- | --- | --- | --- | --- | --- | --- |
| B1 | 3330 | 14100 |  |  |  |  |  |  |  |  |  |  |  |  |  |  |  |  |
| B2 |  |  | 7520 | 25900 | 21600 | 4600 | 17700 | 23200 | 12400 | 1690 | 21000 | 16300 | 27700 | 314 | 8580 | 327 | 21400 | 376 |
